Measured values: the supplement of paper PMC11780869

Test system: Bacillus subtilis
Test: cleaved RNA product abundance (RNA/gDNA barcode ratio) relative to median wild-type variant (ratio to wild type); higher = more accumulation of the downstream cleavage product
Summary of the method: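 Reporter mRNAs (truncated aprE or tetM) carrying barcoded, mutagenized RNase Y cleavage-site windows were made from oligos with a 9% error rate and integrated into the B. subtilis chromosome. Cultures grew in LB at 37°C from OD600 0.0003 to 0.3. Cleaved RNA was gel-selected, reverse transcribed and barcode-sequenced alongside genomic DNA barcodes, with UMI collapsing. Cleaved product abundance is the RNA:gDNA barcode ratio per variant, scaled to the median wild-type variant.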

[1] = experiment (reporter, strain, medium): exp 4a: truncated aprE reporter, strain BJT201 with 2% xylose (RNase J1 expressed), cleavage site: cggR-gapA (positions -7 to +36 mutated)
[2] = experiment (reporter, strain, medium): exp 8a: truncated aprE reporter, strain BJT201 with 2% xylose (RNase J1 expressed), cleavage site: glnRA (positions -5 to +31 mutated)
[3] = experiment (reporter, strain, medium): exp 2b: truncated aprE reporter, strain BJT200, cleavage site: cggR-gapA (positions -7 to +36 mutated)

## ACAGACGAAGGAGCCGCAAAGGAGTTATTAAGTGATGAATAATCCCTCAATATAAATATCTCTCACTTATTTAAA
[1]
  cleaved RNA product abundance: 0.162

## CGACATGTCCCGCTTCTTTCATTAATCCGTTAGCAACTGTGTTGCTATATACATTTACCATTTAAGAGGAGGAAT
[2]
  cleaved RNA product abundance: 0.38

## ACAGACGAAGGAGCCGCAAAGAAGTTATTAAGGGATGAATAATCCCTAAGTATAAATATCTCTCACTTATTTAAA
[3]
  cleaved RNA product abundance: 0.255
[1]
  cleaved RNA product abundance: 0.502

## ACAGACGAAGGAGCCGCAAAGAAGTTATTAAGGGATGAATCATCTCTCAATATAAATATCTCTCACTTATTTAAA
[1]
  cleaved RNA product abundance: 0.595

## ACAGACGAAGGAGCCGCAAAGAAGTTATTAAGGGATGATGAATCCCTCAATATAAATATCTCTCACTTATTTAAA
[1]
  cleaved RNA product abundance: 0.766

## ACAGACGAAGGAGCCGCAAAGAAGTTATTAATGGATGTATAATCCCTCAATATAAATATCTCTCACTTATTTAAA
[3]
  cleaved RNA product abundance: 0.0434
[1]
  cleaved RNA product abundance: 0.211

## CGACATGTCCCGCTTCTTTCATTACTCCGTTAGCAACTGTTTTGCTATATACATTTACCTTTTAAGAGGAGGAAT
[2]
  cleaved RNA product abundance: 1.1

## ACAGACGAAGGAGCCGCAAAGAAGTTATTAAGGGATGAAGAATCCCTAAATATAAATATCTCTCACTTATTTAAA
[1]
  cleaved RNA product abundance: 0.44

## CGACATGTCCCGCTTCTTTCATTAATCCGTTAGCAACTGTTTTGCTATATACATTTACAATTTAAGAGGAGGAAT
[2]
  cleaved RNA product abundance: 1.08

## CGACATGTCCCGCTTCTTTCATTAATTCGTTATCAACTGTTTTGCTATATACATTTACCTTTTAAGAGGAGGAAT
[2]
  cleaved RNA product abundance: 0.31

## CGACATGTCCCGCTTCTTTCATTAATCCGTTAGCAACTATTTTGCTATATATATTTACCTTTTAAGAGGAGGAAT
[2]
  cleaved RNA product abundance: 1.42

## ACAGACGAAGGAGCCGCACACAAGTTATTAAGGGATGAATAATCCCTCAATATAAATATCTCTCACTTATTTAAA
[1]
  cleaved RNA product abundance: 0.483

## CGACATGTCCCGCTTCTTTCATTAATACGATAGCAACTGTTTTGCTATATACATTTACCTTTTAAGAGGAGGAAT
[2]
  cleaved RNA product abundance: 0.935

## ACAGACGAAGGAGCCGCAAAGAAGTTATTCAGAGATGAATAATCCCTCAATATAAATATCTCTCACTTATTTAAA
[3]
  cleaved RNA product abundance: 0.167
[1]
  cleaved RNA product abundance: 0.159

## ACAGACGAAGGAGCCGCAAAGAAGTTATTAAGGGATGAATAATCCCTCTATATAAATATCTCTCACTTATTTAAA
[3]
  cleaved RNA product abundance: 0.42
[1]
  cleaved RNA product abundance: 0.489
Experiment (reporter, strain, medium): exp 6: tetM reporter, strain 168, cleavage site: cggR-gapA (positions -7 to +36 mutated)
  cleaved RNA product abundance: 0.642

## ACAGACGAAGGAGCCGCAAAGAAGTTATTAAGGGATGAATAATCCCTAAATTTAAATATCTCTCACTTATTTAAA
[3]
  cleaved RNA product abundance: 0.162

## ACAGACGAAGGAGCCGCTAAGATGTTATTAAGGGATGAATAATCCCTCAATATAAATATCTCTCACTTATTTAAA
[1]
  cleaved RNA product abundance: 1.18

## ACAGACGAAGGAGCCGCATAGAAGTTATTAAGGGATGAATAATCCCTCAATATAAACATCTCTCACTTATTTAAA
[1]
  cleaved RNA product abundance: 1

## ACAGACGAAGGAGCCGCAACGAAGTTATTAAGTGATGAATAATCCCTCAATATAAATATCTCTCACTTATTTAAA
[3]
  cleaved RNA product abundance: 0.0825
[1]
  cleaved RNA product abundance: 0.13

## ACAGACGAAGGAGCCGCAAAGAAGTTATTAAGGGATGAATAAGCCTTCAATATAAATATCTCTCACTTATTTAAA
[1]
  cleaved RNA product abundance: 0.171

## ACAGACGAAGGAGCCGCAAAGAAGTTTTTAAGGGTTGAATAATCCCTCAATATAAATATCTCTCACTTATTTAAA
[3]
  cleaved RNA product abundance: 0.166
[1]
  cleaved RNA product abundance: 0.271

## CGACATGTCCCGCTTCTTTCATTACTCCGTTAGCTACTGTTTTGCTATATACATTTACCTTTTAAGAGGAGGAAT
[2]
  cleaved RNA product abundance: 0.923

## ACAGACGAAGGAGCCGCAAAGAAGTTATTAAGCGATTAATAATCCCTCAACATAAATATCTCTCACTTATTTAAA
[1]
  cleaved RNA product abundance: 0.0653

## ACAGACGAAGGAGCCGCAAAGAAGTTATTAAGGGATGAATAATACCTGAATATAAATATCTCTCACTTATTTAAA
[3]
  cleaved RNA product abundance: 0.093
[1]
  cleaved RNA product abundance: 0.107

## ACAGACGAAGGAGCCGCAAAAAAGTTATTAAGGGATGAATAATCCCTCATTATAAATATCTCTCACTTATTTAAA
[3]
  cleaved RNA product abundance: 0.293
[1]
  cleaved RNA product abundance: 0.417
